Measured values from the supplement of paper PMC9112550, “Optimization of the antimicrobial peptide Bac7 by deep mutational scanning” (BMC Biology, 2022).
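Also: peptides expressed intracellularly from a pBAD plasmid library in pooled LB shake-flask culture, induced with 0.3% L-arabinose, DNA abundance read by NGS, three biological replicates, DESeq2 with apeglm shrinkage.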

The sequences below were run on Escherichia coli TOP10 (assay: shrunken log2 fold change of peptide-encoding DNA abundance (4.5 h post-induction vs induction); higher = less antimicrobial activity (less host growth inhibition)). Conditions: time post-induction: 4.5 h; library: site-saturation at positions 5, 18, 19, 20.
For RRIRWRPPRLPRPRPRPGDTPRP, the “shrunken log2 fold change” value was -0.0199. RRIRSRPPRLPRPRPRPGPKPRP was tested, and the “shrunken log2 fold change” value was 1.07. In the case of RRIRKRPPRLPRPRPRPNQWPRP, the “shrunken log2 fold change” value is reported as 0.274. RRIRNRPPRLPRPRPRPKRKPRP was tested, and the “shrunken log2 fold change” value was 0.226. In the case of RRIRWRPPRLPRPRPRPMQIPRP, the “shrunken log2 fold change” value is reported as 0.0922. RRIRCRPPRLPRPRPRPEAFPRP was tested, and the “shrunken log2 fold change” value was 0.13. With RRIRTRPPRLPRPRPRPLFTPRP the “shrunken log2 fold change” value was -0.352. With RRIRMRPPRLPRPRPRPKVIPRP the “shrunken log2 fold change” value was -0.259. For RRIRARPPRLPRPRPRPMVEPRP, the “shrunken log2 fold change” value was 0.0234. With RRIRHRPPRLPRPRPRPTYHPRP the “shrunken log2 fold change” value was -0.514. With RRIRSRPPRLPRPRPRPQFFPRP the “shrunken log2 fold change” value was -0.158. In the case of RRIRFRPPRLPRPRPRPYCYPRP, the “shrunken log2 fold change” value is reported as -0.749. In the case of RRIRARPPRLPRPRPRPYQEPRP, the “shrunken log2 fold change” value is reported as 0.0175. With RRIRTRPPRLPRPRPRPRGYPRP the “shrunken log2 fold change” value was 0.205. In the case of RRIRTRPPRLPRPRPRPNIDPRP, the “shrunken log2 fold change” value is reported as -0.32. In the case of RRIRPRPPRLPRPRPRPTWQPRP, the “shrunken log2 fold change” value is reported as 0.543. For RRIRHRPPRLPRPRPRPMYHPRP, the “shrunken log2 fold change” value was -0.287. With RRIRDRPPRLPRPRPRPKFCPRP the “shrunken log2 fold change” value was -0.0512. With RRIRHRPPRLPRPRPRPRSHPRP the “shrunken log2 fold change” value was -0.221. For RRIRERPPRLPRPRPRPHVNPRP, the “shrunken log2 fold change” value was -1.04. For RRIRDRPPRLPRPRPRPMVKPRP, the “shrunken log2 fold change” value was 0.115. In the case of RRIRMRPPRLPRPRPRPCMYPRP, the “shrunken log2 fold change” value is reported as 0.051. For RRIRGRPPRLPRPRPRPIPDPRP, the “shrunken log2 fold change” value was 0.238. RRIRPRPPRLPRPRPRPLKQPRP was tested, and the “shrunken log2 fold change” value was 0.0902. For RRIRRRPPRLPRPRPRPSVHPRP, the “shrunken log2 fold change” value was -0.278. RRIRHRPPRLPRPRPRPRAIPRP was tested, and the “shrunken log2 fold change” value was 0.0852. For RRIRDRPPRLPRPRPRPSMIPRP, the “shrunken log2 fold change” value was -0.162. In the case of RRIRFRPPRLPRPRPRPKCEPRP, the “shrunken log2 fold change” value is reported as 0.051. For RRIRLRPPRLPRPRPRPTGQPRP, the “shrunken log2 fold change” value was 0.107. With RRIRARPPRLPRPRPRPGSFPRP the “shrunken log2 fold change” value was 0.495. With RRIRGRPPRLPRPRPRPANFPRP the “shrunken log2 fold change” value was 0.0804. RRIRYRPPRLPRPRPRPFVNPRP was tested, and the “shrunken log2 fold change” value was 0.017. In the case of RRIRSRPPRLPRPRPRPFVLPRP, the “shrunken log2 fold change” value is reported as -0.215. For RRIRARPPRLPRPRPRPYFFPRP, the “shrunken log2 fold change” value was -0.225. With RRIRFRPPRLPRPRPRPALWPRP the “shrunken log2 fold change” value was 0.625. With RRIRGRPPRLPRPRPRPYKLPRP the “shrunken log2 fold change” value was -0.481. In the case of RRIRSRPPRLPRPRPRPDCNPRP, the “shrunken log2 fold change” value is reported as 0.265. In the case of RRIRYRPPRLPRPRPRPPEYPRP, the “shrunken log2 fold change” value is reported as 0.0412. With RRIRNRPPRLPRPRPRPGMDPRP the “shrunken log2 fold change” value was -0.0895. With RRIRRRPPRLPRPRPRPAIVPRP the “shrunken log2 fold change” value was 0.275. With RRIRGRPPRLPRPRPRPAYCPRP the “shrunken log2 fold change” value was 0.114. For RRIRQRPPRLPRPRPRPVYRPRP, the “shrunken log2 fold change” value was -0.308. For RRIRIRPPRLPRPRPRPCRTPRP, the “shrunken log2 fold change” value was -0.333. RRIRDRPPRLPRPRPRPFLDPRP was tested, and the “shrunken log2 fold change” value was 0.431. In the case of RRIRSRPPRLPRPRPRPGQSPRP, the “shrunken log2 fold change” value is reported as 0.153. For RRIRTRPPRLPRPRPRPVDHPRP, the “shrunken log2 fold change” value was -0.216. RRIRVRPPRLPRPRPRPTEGPRP was tested, and the “shrunken log2 fold change” value was 0.0116. RRIRHRPPRLPRPRPRPKGQPRP was tested, and the “shrunken log2 fold change” value was -0.00141. For RRIRHRPPRLPRPRPRPTCKPRP, the “shrunken log2 fold change” value was -0.015. For RRIRTRPPRLPRPRPRPNFTPRP, the “shrunken log2 fold change” value was -0.0395. In the case of RRIRMRPPRLPRPRPRPKHIPRP, the “shrunken log2 fold change” value is reported as -0.0498. With RRIRCRPPRLPRPRPRPTDCPRP the “shrunken log2 fold change” value was 0.0318. With RRIRIRPPRLPRPRPRPRKGPRP the “shrunken log2 fold change” value was 0.05. RRIRFRPPRLPRPRPRPFSKPRP was tested, and the “shrunken log2 fold change” value was 0.033. With RRIRGRPPRLPRPRPRPLNLPRP the “shrunken log2 fold change” value was -0.018. In the case of RRIRKRPPRLPRPRPRPIVQPRP, the “shrunken log2 fold change” value is reported as 0.000772. With RRIRPRPPRLPRPRPRPMETPRP the “shrunken log2 fold change” value was -0.00904. In the case of RRIRARPPRLPRPRPRPGVVPRP, the “shrunken log2 fold change” value is reported as 0.645. In the case of RRIRPRPPRLPRPRPRPKPDPRP, the “shrunken log2 fold change” value is reported as 0.0452. RRIRKRPPRLPRPRPRPWRRPRP was tested, and the “shrunken log2 fold change” value was 0.0332. For RRIRRRPPRLPRPRPRPAIKPRP, the “shrunken log2 fold change” value was 0.304. RRIRSRPPRLPRPRPRPKWTPRP was tested, and the “shrunken log2 fold change” value was -0.0493. In the case of RRIRDRPPRLPRPRPRPYAQPRP, the “shrunken log2 fold change” value is reported as -0.156. With RRIRGRPPRLPRPRPRPKVHPRP the “shrunken log2 fold change” value was 0.598. With RRIRNRPPRLPRPRPRPHDNPRP the “shrunken log2 fold change” value was -0.511. In the case of RRIRWRPPRLPRPRPRPHVAPRP, the “shrunken log2 fold change” value is reported as 0.181. In the case of RRIRHRPPRLPRPRPRPHNDPRP, the “shrunken log2 fold change” value is reported as -0.329. RRIRYRPPRLPRPRPRPNIKPRP was tested, and the “shrunken log2 fold change” value was -1.13. With RRIRPRPPRLPRPRPRPSNSPRP the “shrunken log2 fold change” value was -0.794. RRIRERPPRLPRPRPRPSAHPRP was tested, and the “shrunken log2 fold change” value was 0.131. With RRIRDRPPRLPRPRPRPAAIPRP the “shrunken log2 fold change” value was 0.272. With RRIRNRPPRLPRPRPRPVGNPRP the “shrunken log2 fold change” value was -0.00879. With RRIRTRPPRLPRPRPRPNEYPRP the “shrunken log2 fold change” value was -0.22. RRIRIRPPRLPRPRPRPHLNPRP was tested, and the “shrunken log2 fold change” value was -0.852. With RRIRMRPPRLPRPRPRPVVMPRP the “shrunken log2 fold change” value was -0.0363.
